Test results from publication PMC4432651, “Dynamic interplay between catalytic and lectin domains of GalNAc-transferases modulates protein O-glycosylation” (Nature Communications, 2015).

Molecular target: polypeptide N-acetylgalactosaminyltransferase 2 (GalNAc-T2), K75-Q571 (UniProt Q10471)
Test: other fluorescence titration; tryptophan fluorescence quenching, 25 °C, GalNAc-T2 at 1 μM, peptides 1 to 500 μM, 25 mM Tris, 150 mM NaCl, pH 7.5; without UDP/Mn+2; single binding site model

Sequence of polypeptide N-acetylgalactosaminyltransferase 2 (GalNAc-T2), K75-Q571 (Q10471 75-571): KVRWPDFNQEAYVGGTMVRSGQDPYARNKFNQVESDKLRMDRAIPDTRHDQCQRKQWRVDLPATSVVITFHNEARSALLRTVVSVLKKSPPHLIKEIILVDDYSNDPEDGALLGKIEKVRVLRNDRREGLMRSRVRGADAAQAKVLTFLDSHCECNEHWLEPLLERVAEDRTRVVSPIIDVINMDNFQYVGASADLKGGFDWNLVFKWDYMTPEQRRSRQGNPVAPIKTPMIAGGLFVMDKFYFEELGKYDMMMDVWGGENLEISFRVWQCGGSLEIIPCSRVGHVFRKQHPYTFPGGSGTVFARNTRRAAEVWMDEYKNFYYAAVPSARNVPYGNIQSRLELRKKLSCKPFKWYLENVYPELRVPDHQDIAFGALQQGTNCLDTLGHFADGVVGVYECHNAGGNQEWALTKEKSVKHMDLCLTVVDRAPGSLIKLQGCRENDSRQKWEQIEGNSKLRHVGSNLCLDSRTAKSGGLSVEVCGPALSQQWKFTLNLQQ

- fold change of Kd, without UDP/Mn+2 against with UDP/Mn+2: 4 fold
Substance: MUC5AC peptide (naked)
